We go through two molecules from patent publication US20210017280A1 (EUREKA THERAPEUTICS, published 2021).

The target in assay [1] is T1, domains 5-7 of CD22 conjugated to green fluorescent protein, expressed in Jurkat cells (human, UniProt P20273 414-687).
T1 construct: also called Jurkat-CD22 (D5-D7)-GFP; not shown: membrane anchor and green fluorescent protein (GFP) fusion
T1 sequence: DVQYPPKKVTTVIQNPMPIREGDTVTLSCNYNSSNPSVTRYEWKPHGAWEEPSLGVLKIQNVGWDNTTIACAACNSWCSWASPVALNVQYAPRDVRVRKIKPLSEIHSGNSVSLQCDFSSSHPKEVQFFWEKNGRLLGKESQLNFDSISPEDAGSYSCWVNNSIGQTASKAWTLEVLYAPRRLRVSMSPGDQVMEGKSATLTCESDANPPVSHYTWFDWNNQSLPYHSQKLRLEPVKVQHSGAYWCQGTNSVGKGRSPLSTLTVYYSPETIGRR
The assay is described as follows: flow cytometry, phage clone on cells.

Assay [2] deals with T2, full-length human CD22 (human, UniProt P20273 20-847).
T2 construct: CD22 on the cell surface: natural on Raji and NALM-6 cells, introduced in Jurkat cells (full-length) and in K562+CD22 cells; The K562 construct is not described further; also called Jurkat-CD22-full; CD22 on Raji, NALM-6 and K562+CD22 cells
T2 sequence: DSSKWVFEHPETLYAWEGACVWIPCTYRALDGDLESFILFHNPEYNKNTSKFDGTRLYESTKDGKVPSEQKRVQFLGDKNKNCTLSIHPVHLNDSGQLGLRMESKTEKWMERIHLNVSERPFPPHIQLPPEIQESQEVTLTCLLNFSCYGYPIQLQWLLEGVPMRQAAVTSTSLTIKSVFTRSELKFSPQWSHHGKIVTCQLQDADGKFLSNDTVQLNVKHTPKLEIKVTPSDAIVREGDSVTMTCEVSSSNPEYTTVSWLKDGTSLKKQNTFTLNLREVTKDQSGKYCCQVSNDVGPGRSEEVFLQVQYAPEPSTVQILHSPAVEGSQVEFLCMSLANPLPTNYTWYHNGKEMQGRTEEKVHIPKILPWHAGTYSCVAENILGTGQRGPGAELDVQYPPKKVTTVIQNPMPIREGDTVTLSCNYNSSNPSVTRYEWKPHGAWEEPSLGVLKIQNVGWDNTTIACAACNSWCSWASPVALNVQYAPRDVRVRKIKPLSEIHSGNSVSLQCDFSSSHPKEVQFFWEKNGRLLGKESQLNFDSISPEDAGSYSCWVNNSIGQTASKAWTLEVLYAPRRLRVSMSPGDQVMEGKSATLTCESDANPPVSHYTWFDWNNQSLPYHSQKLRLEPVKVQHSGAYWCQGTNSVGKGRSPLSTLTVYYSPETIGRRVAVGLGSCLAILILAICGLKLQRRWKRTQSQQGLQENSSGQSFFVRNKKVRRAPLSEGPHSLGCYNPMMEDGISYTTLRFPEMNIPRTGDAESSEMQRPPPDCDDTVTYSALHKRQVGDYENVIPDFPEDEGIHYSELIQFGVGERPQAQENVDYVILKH
The assay is described as follows: flow cytometry, phage clone on NALM-6 cells.

Assay [3] has as its target T1, domains 5-7 of CD22 conjugated to green …. The assay is described as follows: flow cytometry, phage clone on Jurkat cells expressing domains 5-7 of CD22-GFP.
Assay [4] addresses T2, full-length human CD22. The assay is described as follows: flow cytometry, phage clone on Raji cells and Jurkat cells expressing full-length CD22.

B1: phage clone 2 (anti-CD22 clone 2) (scFv, V domains shown)
VH: QVQLVESGGGLVQPGGSLRLSCAASGFTFSNYAMSWVRQAPGKGLEWVSSISGSGGSTYYADSVKGRFTISRDTSKNTLYLQMNSLRAEDTAVYYCARYGSAAWMDSWGQGTLVTVSS
VL: DIQLTQSPSSLSTSVGDRVTITCQASHDIRNYLNWYQQKPGKAPNLLIYAASNLQTGVPSRFSGRGSGTDFTLTISSLQPEDIATYYCQQYDGLPLTFGQGTRLEIKR
Take B1: the binding result (in assay [1]; in the assay with full-length human CD22 [2]) was “binds” each time.

B2: phage clone 1 (anti-CD22 clone 1) (scFv, V domains shown)
VH: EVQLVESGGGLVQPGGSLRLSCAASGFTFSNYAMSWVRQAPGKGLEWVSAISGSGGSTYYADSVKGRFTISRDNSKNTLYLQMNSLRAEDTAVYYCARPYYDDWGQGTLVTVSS
VL: QSVVTQPPSVSAAPGQKVTISCSGSSSNIGNNYVSWYQQLPGTAPKLLIYENNKRPSGIPDRFSGSKSGTSATLGITGLQTGDEADYYCGTWDSSLSAGAVFGGGTKLTVLG
Regarding B2, the binding result (in assay [3]; with full-length human CD22 [4]) was “binds” throughout.
